From PMC2840190

Legend:
[1] = molecular target: gp120-B prebound to sCD4 (HIV-1 (B subtype, isolate YU2) | human) (UniProt P35961); assay: ITC
[2] = molecular target: gp120-A prebound to sCD4 (HIV-1 (A subtype, isolate 92UG031) | human); assay: ITC

UniProt P35961, sequence (P35961 whole entry, looked up): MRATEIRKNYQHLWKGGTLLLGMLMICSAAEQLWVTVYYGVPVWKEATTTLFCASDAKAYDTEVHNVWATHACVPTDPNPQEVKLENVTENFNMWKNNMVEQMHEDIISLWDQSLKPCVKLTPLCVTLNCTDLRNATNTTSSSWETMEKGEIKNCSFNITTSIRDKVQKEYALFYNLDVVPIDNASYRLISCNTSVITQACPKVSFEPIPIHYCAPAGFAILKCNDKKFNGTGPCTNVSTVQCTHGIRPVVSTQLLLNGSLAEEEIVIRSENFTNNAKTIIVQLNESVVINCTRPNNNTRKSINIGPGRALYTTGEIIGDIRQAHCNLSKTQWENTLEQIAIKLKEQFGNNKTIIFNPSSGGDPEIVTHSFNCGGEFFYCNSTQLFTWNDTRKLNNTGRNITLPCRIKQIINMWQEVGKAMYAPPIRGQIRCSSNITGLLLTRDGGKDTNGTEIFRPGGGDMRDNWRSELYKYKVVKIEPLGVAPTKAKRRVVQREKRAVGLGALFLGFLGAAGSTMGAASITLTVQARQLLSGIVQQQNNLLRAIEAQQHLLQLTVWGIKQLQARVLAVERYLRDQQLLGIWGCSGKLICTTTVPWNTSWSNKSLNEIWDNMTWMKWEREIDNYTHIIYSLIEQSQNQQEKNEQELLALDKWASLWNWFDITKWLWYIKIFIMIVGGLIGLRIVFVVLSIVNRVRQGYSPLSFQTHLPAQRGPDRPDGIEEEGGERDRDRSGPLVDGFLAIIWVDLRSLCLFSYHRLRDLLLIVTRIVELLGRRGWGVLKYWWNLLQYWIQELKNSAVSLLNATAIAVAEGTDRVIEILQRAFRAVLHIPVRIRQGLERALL

Monoclonal antibody 17b
dH [1]: -11.1 kcal/mol
Kd [2]: 12 nM
